According to patent EP2970434B1 (The Regents of the University of California, dated 2018):

Legend:
[1] = molecular target: Glu-plasminogen (Homo sapiens (Human)) (UniProt P00747); test: competition of Glu-Plg (2 µM) binding to PMA-stimulated U937 cells by µ-plasmin-KD1L17R-KT complex, read by plasmin generation; Kd from IC50 by Cheng-Prusoff
[2] = molecular target: T1, active site-blocked human plasmin (human, UniProt P00747 97-810, limits assumed, active site blocked with a chloromethylketone inhibitor (e.g., D-Val-Phe-Lys chloromethylketone dihydrochloride)); test: SPR (BiaCore), active site-blocked plasmin on CM5 chip, polypeptide as analyte at 1-10 µM
T1 construct: also called immobilized plasmin
T1 sequence (P00747 97-810 limits assumed): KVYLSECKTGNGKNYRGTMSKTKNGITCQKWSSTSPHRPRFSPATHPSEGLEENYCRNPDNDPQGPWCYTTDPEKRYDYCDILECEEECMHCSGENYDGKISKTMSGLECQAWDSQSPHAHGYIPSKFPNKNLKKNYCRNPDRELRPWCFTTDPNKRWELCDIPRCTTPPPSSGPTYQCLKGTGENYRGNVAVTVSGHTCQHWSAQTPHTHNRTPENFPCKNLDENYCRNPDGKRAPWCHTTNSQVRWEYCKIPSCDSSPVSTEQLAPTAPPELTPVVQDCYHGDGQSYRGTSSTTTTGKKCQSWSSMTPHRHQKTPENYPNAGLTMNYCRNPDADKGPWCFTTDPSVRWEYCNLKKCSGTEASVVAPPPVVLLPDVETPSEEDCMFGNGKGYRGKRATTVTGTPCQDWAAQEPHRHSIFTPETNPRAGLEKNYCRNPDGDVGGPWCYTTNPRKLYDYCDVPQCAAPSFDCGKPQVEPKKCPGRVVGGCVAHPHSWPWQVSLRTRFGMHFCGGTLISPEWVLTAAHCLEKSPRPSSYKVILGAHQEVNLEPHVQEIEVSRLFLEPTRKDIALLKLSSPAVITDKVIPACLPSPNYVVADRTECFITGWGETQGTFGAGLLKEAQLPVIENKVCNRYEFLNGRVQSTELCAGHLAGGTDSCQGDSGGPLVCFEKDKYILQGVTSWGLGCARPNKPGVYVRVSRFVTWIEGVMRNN

human plasmin [3] = molecular target: T2, human plasmin (human, UniProt P00747 97-810, limits assumed); test: cell-based or functional assay
T2 sequence (P00747 97-810 limits assumed): as above

human plasmin [4] = molecular target: T2, human plasmin; test: plasmin amidolytic activity inhibition, S-2251 substrate
[5] = molecular target: T3, factor VIIa-tissue factor (soluble human tissue factor 100 nM and factor VIIa 50 nM) (human), P08709; test: factor VIIa-tissue factor amidolytic activity inhibition, S-2288 substrate; conditions: remark: other sources report otherwise
T3 chain 1: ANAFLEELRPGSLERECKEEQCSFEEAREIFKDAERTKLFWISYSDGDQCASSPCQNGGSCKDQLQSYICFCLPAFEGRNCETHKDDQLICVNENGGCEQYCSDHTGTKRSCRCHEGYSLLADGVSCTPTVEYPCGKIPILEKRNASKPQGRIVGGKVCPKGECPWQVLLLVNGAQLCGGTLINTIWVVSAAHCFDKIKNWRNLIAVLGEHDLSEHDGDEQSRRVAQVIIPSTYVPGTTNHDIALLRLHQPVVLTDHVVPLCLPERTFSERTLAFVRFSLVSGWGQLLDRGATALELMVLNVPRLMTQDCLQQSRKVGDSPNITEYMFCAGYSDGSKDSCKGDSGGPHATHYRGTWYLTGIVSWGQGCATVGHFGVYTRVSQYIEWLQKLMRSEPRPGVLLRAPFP
T3 chain 2: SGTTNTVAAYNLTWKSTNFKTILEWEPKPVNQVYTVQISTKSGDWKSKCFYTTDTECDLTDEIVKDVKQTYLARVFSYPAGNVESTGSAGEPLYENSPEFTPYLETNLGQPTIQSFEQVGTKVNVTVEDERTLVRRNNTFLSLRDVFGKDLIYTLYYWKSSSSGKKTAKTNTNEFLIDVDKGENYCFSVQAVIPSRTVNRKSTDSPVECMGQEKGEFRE

[6] = molecular target: T1, active site-blocked human plasmin; test: SPR (BiaCore), active site-blocked plasmin on CM5 chip, polypeptide as analyte at 1-12 µM
human plasmin [7] = molecular target: T2, human plasmin; test: plasmin amidolytic activity inhibition, S-2251 substrate, 3 nM plasmin, tight-binding equation
Glu-plasminogen [8] = molecular target: T4, Glu-plasminogen (Homo sapiens (Human), UniProt P00747 20-810, Native glycoprotein; the glycans are not carried by the letters.); test: SPR (Biacore T100, 25 °C), Glu-Plg on CM5 chip, 1:1 binding model
T4 construct: also called Glu-Plg
T4 sequence (P00747 20-810 limits assumed): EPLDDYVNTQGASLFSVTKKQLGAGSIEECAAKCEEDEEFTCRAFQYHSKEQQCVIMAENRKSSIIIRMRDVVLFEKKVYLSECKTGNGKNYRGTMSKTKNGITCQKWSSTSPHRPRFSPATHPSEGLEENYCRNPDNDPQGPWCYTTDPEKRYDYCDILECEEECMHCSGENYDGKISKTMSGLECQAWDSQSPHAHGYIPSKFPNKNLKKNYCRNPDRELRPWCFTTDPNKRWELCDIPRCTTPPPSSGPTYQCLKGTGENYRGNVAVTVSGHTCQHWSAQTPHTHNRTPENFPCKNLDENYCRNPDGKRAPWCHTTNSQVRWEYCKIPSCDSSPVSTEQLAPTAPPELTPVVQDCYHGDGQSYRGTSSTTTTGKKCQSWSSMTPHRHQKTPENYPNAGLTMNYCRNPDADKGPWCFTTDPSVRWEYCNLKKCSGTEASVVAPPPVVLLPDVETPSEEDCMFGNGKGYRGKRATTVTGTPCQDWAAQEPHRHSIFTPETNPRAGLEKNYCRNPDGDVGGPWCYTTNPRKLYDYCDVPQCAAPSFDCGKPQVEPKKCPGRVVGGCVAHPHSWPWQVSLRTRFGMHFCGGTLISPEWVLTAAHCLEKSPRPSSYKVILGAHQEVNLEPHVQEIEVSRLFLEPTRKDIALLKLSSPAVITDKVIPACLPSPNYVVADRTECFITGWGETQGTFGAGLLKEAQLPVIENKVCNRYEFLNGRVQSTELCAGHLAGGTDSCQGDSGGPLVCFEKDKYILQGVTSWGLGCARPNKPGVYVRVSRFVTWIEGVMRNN

[9] = molecular target: T5, tissue plasminogen activator (Alteplase) (UniProt P00750 36-562); test: SPR (Biacore T100, 25 °C), tPA on CM5 chip, 1:1 binding model
T5 construct: also called tPA
T5 sequence (P00750 36-562 limits assumed): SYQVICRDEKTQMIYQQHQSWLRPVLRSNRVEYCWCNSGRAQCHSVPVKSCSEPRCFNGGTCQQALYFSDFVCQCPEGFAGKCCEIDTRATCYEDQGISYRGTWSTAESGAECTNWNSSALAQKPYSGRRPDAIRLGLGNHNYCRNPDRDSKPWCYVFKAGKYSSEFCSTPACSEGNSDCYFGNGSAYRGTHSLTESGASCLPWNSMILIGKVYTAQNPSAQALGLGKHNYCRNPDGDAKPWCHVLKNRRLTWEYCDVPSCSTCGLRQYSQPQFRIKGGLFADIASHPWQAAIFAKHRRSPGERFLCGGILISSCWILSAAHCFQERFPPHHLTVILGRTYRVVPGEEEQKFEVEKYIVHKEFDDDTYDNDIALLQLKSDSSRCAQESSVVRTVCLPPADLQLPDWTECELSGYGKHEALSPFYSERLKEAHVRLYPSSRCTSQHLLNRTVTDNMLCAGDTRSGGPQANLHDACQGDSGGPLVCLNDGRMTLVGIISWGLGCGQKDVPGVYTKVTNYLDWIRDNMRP

[10] = molecular target: T5, tissue plasminogen activator (Alteplase); test: SPR, lower end tied to tPA by paragraph 202
Glu-plasminogen [11] = molecular target: T4, Glu-plasminogen; test: SPR, upper end tied to Glu-Plg by paragraph 202

Sequence of Glu-plasminogen (Homo sapiens (Human)) (P00747 20-810 limits assumed): as the sequence (P00747 20-810 limits assumed) above

## µ-plasmin-KD1L17R-KT complex (from UniProt P00747 561-580; P00747 581-810)
[1]
  Kd: 300 nM

B1: plasmin-inhibiting polypeptide comprising the amino acid sequence set forth in SEQ ID NO:5 (designed binder)
chain: NAEICLLPLDYGPCRARLLRYYYDRYTQSCRQFLYGGCEGNANNFYTWEACDDACWRIEK
notes: Expressed in E. coli; also called 60A
[2]
  Kd: 130 nM
Human plasmin [3]
  IC50 (nM), inhibition of plasmin activity (S2251 hydrolysis): 3.4 nM
Human plasmin [4]
  Ki: 2.36 nM

B2: plasmin-inhibiting polypeptide comprising the amino acid sequence set forth in SEQ ID NO:3 (designed binder)
chain: NAEICLLPLDTGPCRARLLRYYYDRYTQSCRQFLYGGCEGNANNFYTWEACDDACWRIEK
notes: Expressed in E. coli; also called DM; 60B
[2]
  Kd: 313 nM
Human plasmin [3]
  IC50 (nM), inhibition of plasmin activity (S2251 hydrolysis): 1.8 nM
Human plasmin [4]
  Ki: 0.49 nM
[5]
  Ki: 5870 nM

B3: plasmin-inhibiting polypeptide comprising the amino acid sequence set forth in SEQ ID NO:4 (designed binder)
chain: NAEICLLPLDTGPCRARLLRYYYDRYTQSCRQFLYGGCEGNANNFYTWEACDDACWRIEKVPK
Human plasmin [3]
  IC50 (nM), inhibition of plasmin activity (S2251 hydrolysis): 0.8 nM

B4: plasmin-inhibiting polypeptide comprising the amino acid sequence set forth in SEQ ID NO:6 (designed binder)
chain: NAEICLLPLDYGPCRARLLRYYYDRYTQSCRQFLYGGCEGNANNFYTWEACDDACWRIEKVPK
notes: Purified recombinant polypeptide; also called 63-residue
[6]
  Kd: 290 nM
Human plasmin [3]
  IC50 (nM), inhibition of plasmin activity (S2251 hydrolysis): 1.8 nM

B5: KD1L17R-KT (designed binder)
chain: GNNAEICLLPLDYGPCRARLLRYYYDRYTQSCRQFLYGGCEGNANNFYTWEACDDACWRIEKVPK
notes: Both have C-terminal lysine; also called IIa cleaved KD1L17R-VT
Human plasmin [7]
  Ki: 1 nM
Glu-plasminogen [8]
  Kd: 280 nM
  koff: 0.00031 s⁻¹
  kon: 1100 M⁻¹ s⁻¹
[9]
  Kd: 210 nM
  koff: 0.00019 s⁻¹
  kon: 910 M⁻¹ s⁻¹
[10]
  Kd: 200 to 300 nM
Glu-plasminogen [11]
  Kd: 200 to 300 nM
